Source: PMC2643475

Legend:
[1] = target: α5β1-integrin (human (endogenous in T-HEp3)) (UniProt P05556); experiment: co-IP; as a1, with 2.5 µM compound MS#479 added for the last 15 min of the IP
[2] = target: α5β1-integrin (human (endogenous in T-HEp3)) (UniProt P05556)
[3] = target: α5β1-integrin (human (endogenous in T-HEp3)) (UniProt P05556); remark: listed apart in the source
[4] = target: α5β1-integrin (human (endogenous in T-HEp3)) (UniProt P05556); remark: listed apart in the source

Sequence of UniProt P05556 (P05556 whole entry, looked up): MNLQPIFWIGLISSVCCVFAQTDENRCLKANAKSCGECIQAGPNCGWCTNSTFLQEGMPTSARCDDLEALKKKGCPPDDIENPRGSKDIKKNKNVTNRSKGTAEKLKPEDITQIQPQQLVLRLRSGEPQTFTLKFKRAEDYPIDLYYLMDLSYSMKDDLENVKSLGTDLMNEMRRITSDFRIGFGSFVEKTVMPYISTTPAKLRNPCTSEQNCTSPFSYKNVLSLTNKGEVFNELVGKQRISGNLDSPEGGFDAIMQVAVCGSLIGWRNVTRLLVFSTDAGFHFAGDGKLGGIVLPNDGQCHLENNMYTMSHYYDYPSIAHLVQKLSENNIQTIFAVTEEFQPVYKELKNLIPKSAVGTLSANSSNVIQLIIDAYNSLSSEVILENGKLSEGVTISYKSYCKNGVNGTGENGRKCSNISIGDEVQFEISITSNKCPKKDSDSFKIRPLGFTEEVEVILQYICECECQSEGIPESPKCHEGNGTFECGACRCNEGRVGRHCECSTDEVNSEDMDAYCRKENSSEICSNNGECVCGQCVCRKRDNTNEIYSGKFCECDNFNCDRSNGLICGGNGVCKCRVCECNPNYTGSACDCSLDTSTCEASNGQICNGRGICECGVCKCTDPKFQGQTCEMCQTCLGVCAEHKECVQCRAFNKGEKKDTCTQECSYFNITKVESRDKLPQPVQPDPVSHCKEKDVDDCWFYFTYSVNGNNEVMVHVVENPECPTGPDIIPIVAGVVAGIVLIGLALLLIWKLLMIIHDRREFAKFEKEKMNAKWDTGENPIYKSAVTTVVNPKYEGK

percent reduction of the uPAR/integrin association with 2.5 µM MS#479 [1]: > 70% | luciferase activity (ERK reporter, units per mg of tumor protein) in T-HEp3 tumors on chick embryo CAMs treated daily with 10 µM MS#479; inhibition against diluent [2]: 85% | Elk1-GAL4 luciferase reporter of ERK activity in T-HEp3 cells treated for 16 hrs with 5 µM MS#479; inhibition against untreated control [3]: > 60% | binding of HUTS-4 antibody (active conformation of β1 integrin) to T-HEp3 cells by FACS with 5 and 50 µM MS#479 or MS#305 [4]: 15%
Substance: urokinase receptor (uPAR) (from UniProt Q03405 23-305)
